Data as given in paper PMC6491591.

Experiments:
[1] = target: endogenous Protein Kinase A catalytic subunit (PKA-Cα) of COS-1 cells; assay: co-immunoprecipitation (IP: V5 antibody), western blot band intensity quantified with ImageJ; settings: COS-1 cells expressing GRTH-V5, parent: est. 1.1, read off a plot
[2] = target: endogenous Protein Kinase A catalytic subunit (PKA-Cα) of COS-1 cells; assay: co-immunoprecipitation (IP: PKA-Cα antibody), western blot band intensity quantified with ImageJ; settings: COS-1 cells expressing GRTH-V5, parent: est. 1.1, read off a plot

Substance | response (Arbitrary units) [1] | response (Arbitrary units) [2]
Gonadotropin Regulated Testicular Helicase (GRTH/DDX25), wild type, V5-His tagged (from UniProt Q9UHL0) E165A; K240A | 0.68 | 0.76
Gonadotropin Regulated Testicular Helicase (GRTH/DDX25), wild type, V5-His tagged (from UniProt Q9UHL0) E165A | 0.88 | 0.88
Gonadotropin Regulated Testicular Helicase (GRTH/DDX25), wild type, V5-His tagged (from UniProt Q9UHL0) T239A | 0.34 | 0.34
